Measurements taken from patent US20080299544.

Columns and labels:
[1] = target: MEFA 7.1
[2] = target: MEFA 7.2

B1: NS3/4a PI (protein)
chain: MAPITAYAQQTRGLLGCIITSLTGRDKNQVEGEVQIVSTAAQTFLATCINGVCWTVYHGAGTRTIASPKGPVIQMYTNVDQDLVGWPAPQGSRSLTPCTCGSSDLYLVTRHADVIPVRRRGDSRGSLLSPRPISYLKGSSGGPLLCPAGHAVGIFRAAVCTRGVAKAVDFIPVENLETTMRSPVFTDNSSPPVVPQSFQVAHLHAPTGSGKSTKVPAAYAAQGYKVLVLNPSVAATLGFGAYMSKAHGIDPNIRTGVRTITTGSPITYSTYGKFLADGGCSGGAYDIIICDECHSTDATSILGIGTVLDQAETAGARLVVLATATPPGSVTVPHPNIEEVALSTTGEIPFYGKAIPLEVIKGGRHLIFCHSKKKCDELAAKLVALGINAVAYYRGLDVSVIPPIGDVVVVATDALMTGYTGDFDSVIDCNTCVTQTVDFSLDPTFTIETITLPQDAVSRTQRRGRTGRGKPGIYRFVAPGERPSGMFDSSVLCECYDAGCAWYELTPAETTVRLRAYMNTPGLPVCQDHLEFWEGVFTGLTHIDAHFLSQTKQSGENLPYLVAYQATVCARAQAPPPSWDQMWKCLIRLKPTLHGPTPLLYRLGAVQNEITLTHPVTKYIMTCMSADLEVVTSTWVLVGGVLAALAAYCLSTGCVVIVGRVVLSGKPAIIPDREVLYREFDEMEEC
proteolytic cleavage (SDS-PAGE and anti-hSOD Western blot after 30 minutes at room temperature) [1]: the NS3/4a cleaved MEFA 7.1 (lane 5, FIGS. 14A and 14B) | proteolytic cleavage (SDS-PAGE and anti-hSOD Western blot after 30 minutes at room temperature) [2]: MEFA 7.2, on the other hand, showed no degradation (lane 6, FIGS. 14A and 14B)
